Reference: article PMC5095173, “Disulfide-activated protein kinase G Iα regulates cardiac diastolic relaxation and fine-tunes the Frank–Starling response” (Nature Communications, 2016)

Target: T1, phospholamban (mouse myocardium) (mouse (endogenous in mouse heart)), P61014
T1 chain: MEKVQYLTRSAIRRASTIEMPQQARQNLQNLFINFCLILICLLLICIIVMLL
Test: SDS-PAGE of samples not boiled, with immunoblot; mouse heart homogenate, samples not boiled before western blotting for total PLN; WT and C42S PKGIα KI hearts
Conditions: remark: other sources report otherwise

stoichiometry N: 5
B1: phospholamban (mouse myocardium), P61014 1-52 (natural protein)
chain: T1 chain
